# Measurements as given in the supplement of paper PMC12764529.
# ± gives the half width of the 95% confidence interval.
# Columns and labels:
# [1] = folding stability dG unfold from trypsin proteolysis; higher = more stable
# Protocol: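 Folding stability of de novo designed mini-proteins (<80 aa, no Cys; designed by TrROS, TrMRF, ProteinMPNN and the joint model) was measured by cDNA display proteolysis with trypsin and chymotrypsin. Each protease was used at 11 concentrations in a threefold dilution series plus a no-protease condition. K50 was inferred by Bayesian fitting of sequencing counts, and dG unfold was derived against a sequence-predicted unfolded-state K50 (Tsuboyama et al. method). Sequences shown include variable-length N-terminal GS-type padding (SAGGSAGG...) inside a display construct carrying a PA tag. Rows were kept only if the AF2 dimer inter-PAE was >15, to exclude likely homo-oligomers.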
# [2] = folding stability dG unfold (combined trypsin and chymotrypsin); higher = more stable
# Method in brief: (§1)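 Unfolding free energy was derived, per protease or combined, against a sequence-predicted unfolded-state K50 and a shared folded-state K50, starting from K50 inferred by Bayesian fitting of sequencing counts. Digestion with trypsin and chymotrypsin was carried out on designed mini-proteins under 80 residues without cysteine in a PA-tagged cDNA display construct. Only designs with AlphaFold2 dimer inter-PAE above 15 were kept.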
# [3] = folding stability dG unfold from chymotrypsin proteolysis; higher = more stable
# Method in brief: as §1
Sequence,folding stability dG unfold [1],folding stability dG unfold [2],folding stability dG unfold [3]
SAGGSAGGSAGGDIEINVNANSPEEAKKFLGEFAQEGPAEIKIEVTPPPPPMPPNDPEYKSAGGSAGGSAGG [r7_261_TrROS],-0.235 ± 0.096 kcal/mol,< -1 kcal/mol,–
SAGGSAGGSAGGGMTVVPTLEFFPGTRLVVRPVVVRDAEGRVVEVEPEVTPLPPPTLSLLSAGGSAGGSAGG [r7_135_JUSTAS],-0.353 ± 0.17 kcal/mol,< -1 kcal/mol,–
SAGGSAGGSMIVEKKYSLDPAKGTITTTTTTVTPVPNGDSLIVSTTTTTKSVSPSESPDISSSSAGGSAGGS [r12_700_JUSTAS],-0.39 ± 0.066 kcal/mol,-0.553 ± 0.24 kcal/mol,–
SAGGSAGGSAGMKIVAPSKEEAEKIAKELAKELGLPDEIKDLEIEVIPLKPTPDGGFIPYSAGGSAGGSAGG [r17_237_TrMRF],-0.168 ± 0.17 kcal/mol,-0.715 ± 0.22 kcal/mol,–
SAASTLKATLRPPDGSTLDVTVLDPGEGWLLQLGDGSERVSPEELEALLANDPSLVVEELTELPLEELSSAG [r14_336_JUSTAS],0.175 ± 0.05 kcal/mol,-0.654 ± 0.2 kcal/mol,–
SAGGSAGGSAMRVVEITVPPENPEELKREIAEAFPFEVEGEEVGDGSVTLRFILPEDVELGSAGGSAGGSAG [r3_457_TrMRF],0.142 ± 0.097 kcal/mol,-0.212 ± 0.13 kcal/mol,–
SAGGSAGGSMLTITVKTTDPAKGGSATTVIPVPVPGSVEEARELAEEIKKKLPPEVVEITVLESAGGSAGGS [r12_871_JUSTAS],-0.294 ± 0.19 kcal/mol,< -1 kcal/mol,–
SAGNIKKGSIYMPEDGWMIKIEYPDPGKEIHIPFDDDLSEIKDNLEEPGFEPVAVEVEPFPPGQPMEISAGG [r19_386_TrROS],-1.05 ± 0.22 kcal/mol,< -1 kcal/mol,–
SAGGSAGGSAGGMPVEVTEVASVTTLPNGTTKITIKTPTGTVTFDDPSKIPSSILKLLSSAGGSAGGSAGGS [r10_748_JUSTAS],0.703 ± 0.014 kcal/mol,0.211 ± 0.1 kcal/mol,–
SAGGSAGGSAGGSSLSTVAPSPSGRLYVELDIDEPVVSPTPIPTGTGPVSGIIVSPVLLSAGGSAGGSAGGS [r10_92_JUSTAS],-0.989 ± 0.31 kcal/mol,< -1 kcal/mol,–
SAGGSAGGSAGGKKKKKKVSINIRGGMSVEEVKGKAQELQSQGDPDVKEVKIHISPNMWSAGGSAGGSAGGS [r10_233_TrROS],0.33 ± 0.11 kcal/mol,–,–
SAGGSAGGSAGGSMVAKELAEKIGAKVEGVEVKPIFDPEGKPVSEELKAKIEVLPPDYPLSAGGSAGGSAGG [r7_650_JUSTAS],-0.537 ± 0.19 kcal/mol,–,–
SAGGSAGGSAGGTAEELKEKLPDVEFVPLEELENSVLILAKPPGGPVKLILVDGDKVVVASAGGSAGGSAGG [r7_25_TrMRF],0.322 ± 0.097 kcal/mol,–,–
SAGGSAGGSAGKEPILAIPNPEFPDVVIIKTKDGVRAVPVEELKELDIDAVMSLEEALASSAGGSAGGSAGG [r17_88_TrMRF],–,0.174 ± 0.2 kcal/mol,0.731 ± 0.067 kcal/mol
SAGGSAGGSAGGSSSSSGTTLVPVTITTETFLNDDTPVTTVTTVLKTLAPDETLADLLASAGGSAGGSAGGS [r4_283_JUSTAS],–,-0.519 ± 0.26 kcal/mol,-0.292 ± 0.11 kcal/mol
SAGGGENAPKPIVEPKLVSTFLIDVEPDTYTPEEIAELFKEATGYEIEEVEVEELPDDNTVLVTVVAGSAGG [r13_457_TrMRF],–,0.0888 ± 0.22 kcal/mol,0.472 ± 0.24 kcal/mol
SAGGSAGGSAGGSAAEFVAAHPDVEARPVEEGPGSVLVALRPPGGPELLVRVEGAAVTLESAGGSAGGSAGG [r7_26_JUSTAS],–,< -1 kcal/mol,-0.459 ± 0.34 kcal/mol
SAGGSAMTKKTVVTIPLPPGAEDLSPEEVERRVRDELAAEPARPDVTVEVERLPPEPVVRVTITEASAGGSA [r15_1029_JUSTAS],–,-0.307 ± 0.2 kcal/mol,0.0943 ± 0.046 kcal/mol
SAGGSAGGSAGGMSAEEVREIVEELGFDDPTEVVVLDLPDGRRVLVTNPPDGLRLEVLDSAGGSAGGSAGGS [r10_604_TrMRF],–,0.562 ± 0.12 kcal/mol,0.967 ± 0.053 kcal/mol
SAGGSAPPEVVEVPPVELPDYTVSPPRFAPEPTLRERTATPPDGPEFSVTTRIDPETGVPEVVVAASAGGSA [r15_84_JUSTAS],–,0.211 ± 0.067 kcal/mol,0.718 ± 0.017 kcal/mol
SAGTKTIMGRPDDLPEAIEEALDKGPDLKKVKIYWGGREREIPLGDKIKITEPMPNPNGPPFMMIEIEDSAG [r5_130_TrROS],–,< -1 kcal/mol,-0.486 ± 0.38 kcal/mol
SAGGSAGGSAGDVEVTEVTDANGNLTLTVKAKPATVTPNETVTVTLTVVNDDGETKTFELSAGGSAGGSAGG [r17_293_TrROS_Hall],–,-0.493 ± 0.41 kcal/mol,-0.186 ± 0.4 kcal/mol
SAGGSAGGMKKYTFDSGYEFEIDGATEEEAIEKLKEEGYPLPVKKITAEEVKPEPPPPFERNLKSAGGSAGG [r6_688_JUSTAS],–,-0.451 ± 0.29 kcal/mol,0.109 ± 0.23 kcal/mol
SAGPLVITVEETDGTVTITIYDAETGEKIAEFTFPKGAEVTIEDGYITIRNKETGETFVFKLPDGVKPSAGG [r19_4_TrROS_Hall],–,> 6 kcal/mol,6.34 ± 0.27 kcal/mol
